This experiment has as its target human IL-1R1 (IL-1 receptor type I), full length, expressed in transfected Jurkat E6.1 cells (human) (UniProt P14778). The experiment is described as follows: cell-based or functional assay.
Sequence of UniProt P14778 (P14778 18-569): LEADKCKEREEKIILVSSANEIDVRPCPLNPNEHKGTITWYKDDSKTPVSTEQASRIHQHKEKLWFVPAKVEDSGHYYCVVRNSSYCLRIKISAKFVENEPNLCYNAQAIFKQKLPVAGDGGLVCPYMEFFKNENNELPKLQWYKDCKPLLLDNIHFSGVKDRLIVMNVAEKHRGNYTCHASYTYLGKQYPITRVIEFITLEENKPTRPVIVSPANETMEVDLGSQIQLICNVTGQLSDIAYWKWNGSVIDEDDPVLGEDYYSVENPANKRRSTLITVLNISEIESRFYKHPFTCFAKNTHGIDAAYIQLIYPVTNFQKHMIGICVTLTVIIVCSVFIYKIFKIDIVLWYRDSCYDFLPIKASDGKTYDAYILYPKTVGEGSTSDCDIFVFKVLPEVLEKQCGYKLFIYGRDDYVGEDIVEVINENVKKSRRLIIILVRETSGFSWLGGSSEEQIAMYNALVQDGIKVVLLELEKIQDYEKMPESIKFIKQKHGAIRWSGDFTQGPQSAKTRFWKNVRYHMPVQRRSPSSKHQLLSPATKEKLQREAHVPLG

As for “recombinant human IL-1RA (IL-1 receptor antagonist) (from UniProt P18510 26-177) (ligand)”, the excess over IL-1α giving 50% inhibition of the NFκB reporter response (fold excess over IL-1α) is 1000.

For the origin of these results see US20020102234A1.
